Measurements published in the supplement of paper PMC12042874.
± gives the uncertainty stated by the source.

Experiment: amyloid nucleation score (Sup35N fusion, yeast selection) (log enrichment); library NNK2; higher = more nucleation; inactive = no reads after selection
Summary of the method: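 The nucleation score is a DiMSum log enrichment of output over input reads, centred on the mode score of non-aggregating sequences. Sequences under 100 input reads were excluded, and reads came from Illumina sequencing of plasmid inserts. Psi-negative yeast expressing Sup35N fused to peptides of 20 random codons were induced with 100 μM copper sulfate for 24 hours and grown 7 days at 30°C on medium lacking adenine and uracil. Random libraries had three technical output replicates.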

Substance | amyloid nucleation score
CVCSVYAGNFCLIVLVWLMV | 0.433 ± 0.74
CVCYDLYELLAITQLHLWSF | -0.344 ± 0.48
CVDTSFCLYARELILCAR | -0.121 ± 0.5
CVDVDIKMLPGFCRCNIPLC | -1.34 ± 1.1
CVFVPIKLGGDGLTVYLKCI | -0.996 ± 0.45
CVHLLSVSGWDFQYYFQAFN | 1.17 ± 0.13
CVIGCSGWKRIFIISILYRV | -0.562 ± 1
CVKVNWVSV | -0.81 ± 0.76
CVMSFYPELIILASSFCVPF | -1.22 ± 0.36
CVTQSR | -0.086 ± 0.26
CVVKDSSTVFM | -1.9 ± 1
CVVQHSRSFVRPLLSTLQAC | 0.453 ± 0.23
CVWGWNRSYTYYYGDAIGHC | inactive
CWARMWGYSKCHSRVFSYMS | -1.1 ± 0.55
CWDRFTYEYLSFYSLISRV | inactive
CWFPWSSYLRNMFELPKTWL | 0.529 ± 0.55
CWQVYLIFMGRMVCLTVML | 1.15 ± 0.66
CYAPKYGRHWP | 0.708 ± 0.49
CYFSGSVSRTSVRLVLLSNG | -0.573 ± 1.1
CYGLYPEDLLCMYGKLDLPR | 0.229 ± 0.61
CYINKVRCMMHLWDHDDTWG | 0.734 ± 0.81
CYLVYFSYKLHQI | -1.43 ± 1.1

Substance | amyloid nucleation score
CYSLSYLILVCR | 5.73 ± 0.041
CYTDTMARK | 4.15 ± 0.047
CYVDFSYLVNKFYWGPRWMP | -0.049 ± 0.5
CYVRI | -0.603 ± 1.1
CYVVAREKSLIETGNFGKYG | -0.653 ± 0.79
CYYVDIVVSHQRTTSVMVGD | 0.698 ± 0.29
DACWFMIGHIGFC | inactive
DAITCGVHFAKDLNWVYIEV | inactive
DAMSMCP | 7.398 ± 0.061
DCFTRYGCAGKYRVGAQGSS | 1.47 ± 0.47
DCHEGRTNPRALKCFTEERG | 0.173 ± 1.1
DCLICFKDICNFENNEMIGA | -0.556 ± 0.2
DCLRCNHYTVCNMYDRFFLL | inactive
DCPLFQRLYRQS | -0.211 ± 0.22
DCSDLVSLLCNVRHAHGRWL | 4.42 ± 0.067
DCSNDRKIYYNWAIRVVRTD | 0.076 ± 0.35
DDVSHPHLKCIVWD | inactive
DEGVPSGYVTAL | -0.354 ± 0.76
DEKIYLVSG | 0.472 ± 0.66
DEPLWKLKFKFEWFIRTLVI | -1.37 ± 0.76
DFAGSKDDWTSQMMGVLDGL | -0.689 ± 0.44
DFESGWFSVDFVN | -0.853 ± 0.55

Substance | amyloid nucleation score
DFGKIGEWDWAGGVYLSAWR | -0.137 ± 1.1
DFGVWFFFYTHQLSA | -0.113 ± 1.1
DFISCVLFSLFFRTLSRKGH | -0.679 ± 0.64
DFMFFVYPSNSMLKGISRGR | -1.77 ± 0.48
DFNLWPLC | -0.373 ± 1.1
DFVHVEIDPYQVGGGFQ | 8.764 ± 0.046
DFYSNEWRGDEICVQLLELV | 0.393 ± 0.66
DFYSNYILLRSSP | -1.84 ± 1
DGFMLMFFTITIRFPNALQV | inactive
DGFSFIVRSFVWRNNHADAG | 3.71 ± 0.12
DGFVGALDGVISSCWNTLRG | -0.701 ± 0.63
DGSHLSKTDVK | 0.113 ± 0.2
DGVRGLYKRLRMCTTCLCTL | 6.48 ± 0.079
DGVSCSRVNAVVYARLSQMG | 1.3 ± 0.23
DHADWNAYHISTEV | 3.25 ± 0.05
DHLNV | -0.401 ± 0.63
DIFCLRPYKLPGYTFYYFVY | inactive
DINSQEVCSVTELGR | -0.247 ± 0.45
DITTEVKGSLLVMLSGDNAG | 0.807 ± 0.31
DIYPRLLEDVFYPFVQPHLF | -0.505 ± 1.1
DKMYVIIVGPLAAMENVNNT | 0.024 ± 0.48
DKSFVSLSRFHSGRLEIRVM | -0.886 ± 0.49

Substance | amyloid nucleation score
DKYAGCNSDDINWMKDRVSG | 0.029 ± 0.5
DLAFFMLHYLHIRRCKDYPR | inactive
DLCQSHLPCHMRRTSFRQLP | 0.606 ± 0.36
DLHPGNSNAD | -0.146 ± 0.54
DLKVDQSVWRSLDMNALVAN | 1.27 ± 0.44
DLNYFSTMGEVLYMFSVLTY | -0.08 ± 1
DLRRSKSFDDTNEHWHSGFR | -0.607 ± 0.64
DLSHNVNVCICFCWAMRYDA | 8.342 ± 0.045
DLSRLCVGHAVI | 0.446 ± 0.18
DLSVLDLGVLFINRFTRTLE | inactive
DLTCSC | 0.804 ± 0.3
DLYNCMHWQHVEYIMLLHGL | -0.846 ± 0.35
DLYQALSISV | -0.308 ± 0.39
DMGGPTTIY | 0.798 ± 0.67
DMLPVRVVAHWCVVARCTRV | 0.965 ± 0.2
DMLVCNGLFVFRASKGTIDA | -0.837 ± 1.1
DMLVDYSIKDDRVYKVRLPM | -1.61 ± 0.62
DMVCRY | -0.272 ± 0.36
DNCFAAFSFRRGVAYVDL | -0.52 ± 0.38
DNDMG | -0.267 ± 0.25
